B1: Unconventional myosin-Ie, residues 1051 to 1108; numbered along this chain, Q12965 (parent)
chain: PQVPQCKALYAYDAQDTDELSFNANDIIDIIKEDPSGWWTGRLRGKQGLFPNNYVTKI
B2: Histone-lysine N-methyltransferase SETD2, residues 2382 to 2430; numbered along this chain, Q9BYW2 (parent)
chain: SPPKPKTIVLPPNWKTARDPEGKIYYYHVITRQTQWDPPTWESPGDDAS

Variants of: B1
Test: abundance fitness (aPCA) (normalised: wild type 0, dead -1); higher = more abundant; growth selection in yeast, the domain comes from the species named
Conditions: Homo sapiens

Abundance fitness, by site and new letter:
P1: L 0.072, V 0.027, W -0.237, K 0.169, G -0.198, H 0.305, R -0.362, S 0.006, Q 0.05, C -0.374, T 0.057, D -0.164, E -0.144, A 0.03
Q5: C -0.269, L -0.135, E -0.467, Y -0.007, P -0.739, V -0.065, R 0.023, K -0.075, W -0.281, M -0.041, S -0.065, I -0.072, T 0.01, N -0.062, F -0.158, A -0.245
C6: S -0.448, A 0.097, R -0.818, K -1, I -0.67, H -0.839, G 0, M -0.172, D -0.807, P -0.96, L -0.866
Q2: R -0.317, I -0.176, S -0.223, Y -0.373, L -0.106, G -0.102, F -0.597, T -0.155, W -0.12, H -0.208, M 0.153, P -0.062, C -0.193, D 0.01, K -0.09, N 0.068, A -0.091, V -0.173, E -0.193
V3: I -0.145

Variants of: B2
Test: as above
Conditions: Homo sapiens

Abundance fitness of substitutions, site by site:
Q35: I -0.505, M -0.074, C -0.337, S -0.062, L -0.364, Y -0.489, N -0.875, E -0.547, W -0.722, H -0.083, G -0.735, A -0.155, V -0.212, F -0.683, P -0.535, D -0.869, K -0.351, T -0.052
E42: W -0.172, D -0.504, L -0.412, N -0.173

— the Human Domainome abundance scans (Beltran et al. 2025)
